Experimental findings from article PMC2266796, “The Assembly of the Plasmodial PLP Synthase Complex Follows a Defined Course” (PLoS ONE, 2008) are described below.

To fix the notation:
B2: PfPdx1 K151A (enzyme)
chain: MENHKDDAVLLKHGWCEMLKGGVIMDVKSVEQAKIAEEAGAIGVMVLENIPSELRNKEGVARSVDPSKVEEIKKCVSINVLAKVRIGHFVEAQILEELKIDMIDESEVLTIADEMHHIDKHKFKTPFVCGCTNLGEALRRISEGASMIRTAGEAGTGNIIEAIKHIRTVNNEIKYLCSLSDSEVYHFAKKINAPIDLVLLTKKLKRLPVVNFAAGGVATPADAAMCMQLGMDGVFVGSGIFESENPRKMAASIVSAVSNFNNPKILLDVSMNLGKAMCGSTRVSDKWKNKNEEHTKFLTPQ
notes: Pdx1 of Plasmodium falciparum in pASK-IBA3, point mutant; source: E. coli BLR (DE3); purified (Strep-Tactin) for light scattering; cell homogenate for co-purification
B3: PfPdx1 DKK (D26A/K83A/K151A) triple mutant (enzyme)
chain: MENHKDDAVLLKHGWCEMLKGGVIMAVKSVEQAKIAEEAGAIGVMVLENIPSELRNKEGVARSVDPSKVEEIKKCVSINVLAAVRIGHFVEAQILEELKIDMIDESEVLTIADEMHHIDKHKFKTPFVCGCTNLGEALRRISEGASMIRTAGEAGTGNIIEAIKHIRTVNNEIKYLCSLSDSEVYHFAKKINAPIDLVLLTKKLKRLPVVNFAAGGVATPADAAMCMQLGMDGVFVGSGIFESENPRKMAASIVSAVSNFNNPKILLDVSMNLGKAMCGSTRVSDKWKNKNEEHTKFLTPQ
notes: Pdx1 of Plasmodium falciparum in pASK-IBA3, triple mutant; Hexamer without additive; about half dodecamer with 10 mM glutamine; also called DKK to AAA (D26/K83/K151); DKK mutant; source: E. coli BLR (DE3); purified (Strep-Tactin) for light scattering; cell homogenate for co-purification

Series [1] deals with the molecule itself. The series can be described thus: SEC-MALS; 100 ug purified Strep-tagged PfPdx1 on Superdex 200 10/30 with static light scattering (miniDAWN Tristar); 100 mM Tris-HCl pH 8.0, 150 mM NaCl, no amino acid added. A general note: SEC sorts molecules by how far they enter the pores of the column.
Series [2] deals with the molecule itself. The series can be described thus: SEC-MALS; as a2, with 10 mM glutamine in the elution buffer.
Series [3] deals with B2. The series can be described thus: cell-based or functional assay.
In series [4] the target is B3. The series can be described thus: cell-based or functional assay.
Series [5] addresses PfPdx1 ERR (E136A/R139A/R140A) triple mutant (P. falciparum, UniProt C6KT50 1-301, E136 to alanine | R139 to alanine | R140 to alanine). The series can be described thus: cell-based or functional assay.
Series [6] deals with PfPdx1 D26A (P. falciparum, UniProt C6KT50 1-301, D26A). The experiment in a line: cell-based or functional assay.
Series [7] concerns the target PfPdx1 K83A (P. falciparum, UniProt C6KT50 1-301, K83A). The experiment in a line: cell-based or functional assay.

B1: PfPdx1 wild-type (Plasmodium falciparum Pdx1, Strep-tagged) (enzyme, P. falciparum, UniProt C6KT50 1-301, looked up)
chain: MENHKDDAVLLKHGWCEMLKGGVIMDVKSVEQAKIAEEAGAIGVMVLENIPSELRNKEGVARSVDPSKVEEIKKCVSINVLAKVRIGHFVEAQILEELKIDMIDESEVLTIADEMHHIDKHKFKTPFVCGCTNLGEALRRISEGASMIRTKGEAGTGNIIEAIKHIRTVNNEIKYLCSLSDSEVYHFAKKINAPIDLVLLTKKLKRLPVVNFAAGGVATPADAAMCMQLGMDGVFVGSGIFESENPRKMAASIVSAVSNFNNPKILLDVSMNLGKAMCGSTRVSDKWKNKNEEHTKFLTPQ
notes: molecular mass used for light scattering 34.2 kDa; also called PfPdx1 WT; plasmodial Pdx1; source: E. coli BLR (DE3); purified (Strep-Tactin) for light scattering; cell homogenate for co-purification; copies: 12
By stoichiometry N is commonly meant a count of units in the complex or per binding partner. Turning to B1, the “stoichiometry N” value in series [1] is 12.
Same read-out and setting: to B2 belongs 6.
Consider B3, for which the “stoichiometry N” value was 12 in series [2] and 6 in series [1].

B4: PfPdx2HIS wild-type (Plasmodium falciparum Pdx2 with C-terminal 6x His-tag) (enzyme)
chain: MSEITIGVLSLQGDFEPHINHFIKLQIPSLNIIQVRNVHDLGLCDGLVIPGGESTTVRRCCAYENDTLYNALVHFIHVLKKPIWGTCAGCILLSKNVENIKLYSNFGNKFSFGGLDITICRNFYGSQNDSFICSLNIISDSSAFKKDLTAACIRAPYIREILSDEVKVLATFSHESYGPNIIAAVEQNNCLGTVFHPELLPHTAFQQYFYEKVKNYKYS
Consider B4, for which the “glutaminase activity of PfPdx2 mixed equimolar with the PfPdx1 variant” value in series [3] was 251 mU mg^−1; in series [4], 274 mU mg^−1; in series [5], 286 mU mg^−1; in series [6], 285 mU mg^−1; in series [7], 291 mU mg^−1.
